Bridge positions count the residues as written; N and C are the ends. Square brackets hold non-standard residues; d marks the D form. Ends that are not written are not given here. mXylyl = xylyl linker from dibromoxylene joining the two cysteines; NMeW = CN[C@@H](Cc1c[nH]c2ccccc12)C(=O)O; NMeT = CN[C@H](C(=O)O)[C@@H](C)O; NMeS = CN[C@@H](CO)C(=O)O; NMeA = CN[C@@H](C)C(=O)O
T1: tissue kallikrein KLK13 (R&D Systems) (human, UniProt Q9UKR3 17-277, limits assumed)
T1 sequence (looked up): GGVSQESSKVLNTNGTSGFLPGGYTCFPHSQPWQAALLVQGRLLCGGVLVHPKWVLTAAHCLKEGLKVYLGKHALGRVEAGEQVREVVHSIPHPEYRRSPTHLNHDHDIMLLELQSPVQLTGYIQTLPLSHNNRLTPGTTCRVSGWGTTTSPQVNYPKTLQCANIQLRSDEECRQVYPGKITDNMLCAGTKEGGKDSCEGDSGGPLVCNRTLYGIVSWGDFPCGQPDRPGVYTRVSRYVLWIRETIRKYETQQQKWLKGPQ

T2: Factor XIIa (Enzyme Research Laboratories) (human, UniProt P00748 20-615, limits assumed)
T2 sequence (looked up): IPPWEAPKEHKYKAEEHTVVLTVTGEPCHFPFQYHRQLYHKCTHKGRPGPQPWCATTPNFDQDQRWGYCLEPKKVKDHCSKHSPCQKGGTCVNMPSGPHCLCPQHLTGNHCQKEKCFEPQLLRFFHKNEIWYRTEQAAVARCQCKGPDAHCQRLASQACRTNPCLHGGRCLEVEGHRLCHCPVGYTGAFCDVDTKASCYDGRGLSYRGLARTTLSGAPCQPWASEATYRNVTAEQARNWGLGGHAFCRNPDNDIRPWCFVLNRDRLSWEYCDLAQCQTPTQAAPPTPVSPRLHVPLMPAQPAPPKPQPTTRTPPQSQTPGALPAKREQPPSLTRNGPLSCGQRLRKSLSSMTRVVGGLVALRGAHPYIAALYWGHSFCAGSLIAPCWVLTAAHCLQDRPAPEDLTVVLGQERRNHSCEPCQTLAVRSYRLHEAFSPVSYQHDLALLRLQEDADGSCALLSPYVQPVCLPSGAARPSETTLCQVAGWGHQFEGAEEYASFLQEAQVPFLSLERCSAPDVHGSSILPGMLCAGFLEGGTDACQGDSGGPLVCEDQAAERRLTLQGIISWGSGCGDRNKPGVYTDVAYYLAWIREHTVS

T3: Factor VIIa (Enzyme Research Laboratories) (human, UniProt P08709 61-466)
T3 sequence (looked up): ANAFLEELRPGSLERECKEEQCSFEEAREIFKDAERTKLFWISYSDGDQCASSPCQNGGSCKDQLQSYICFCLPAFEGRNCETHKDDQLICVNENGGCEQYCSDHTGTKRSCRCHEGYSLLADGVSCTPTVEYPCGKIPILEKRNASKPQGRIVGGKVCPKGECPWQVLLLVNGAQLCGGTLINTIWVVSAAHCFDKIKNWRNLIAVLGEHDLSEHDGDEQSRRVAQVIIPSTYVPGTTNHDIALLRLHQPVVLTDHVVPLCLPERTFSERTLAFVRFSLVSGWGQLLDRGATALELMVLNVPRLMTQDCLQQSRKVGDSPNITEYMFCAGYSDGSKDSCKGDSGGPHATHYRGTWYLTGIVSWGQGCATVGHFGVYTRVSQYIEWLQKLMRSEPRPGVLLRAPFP


Molecular target: T4, Activated human plasma kallikrein (Enzyme Research Laboratories, HPKa 1303) (human, UniProt P03952 20-638)
T4 sequence (P03952 20-638 limits assumed): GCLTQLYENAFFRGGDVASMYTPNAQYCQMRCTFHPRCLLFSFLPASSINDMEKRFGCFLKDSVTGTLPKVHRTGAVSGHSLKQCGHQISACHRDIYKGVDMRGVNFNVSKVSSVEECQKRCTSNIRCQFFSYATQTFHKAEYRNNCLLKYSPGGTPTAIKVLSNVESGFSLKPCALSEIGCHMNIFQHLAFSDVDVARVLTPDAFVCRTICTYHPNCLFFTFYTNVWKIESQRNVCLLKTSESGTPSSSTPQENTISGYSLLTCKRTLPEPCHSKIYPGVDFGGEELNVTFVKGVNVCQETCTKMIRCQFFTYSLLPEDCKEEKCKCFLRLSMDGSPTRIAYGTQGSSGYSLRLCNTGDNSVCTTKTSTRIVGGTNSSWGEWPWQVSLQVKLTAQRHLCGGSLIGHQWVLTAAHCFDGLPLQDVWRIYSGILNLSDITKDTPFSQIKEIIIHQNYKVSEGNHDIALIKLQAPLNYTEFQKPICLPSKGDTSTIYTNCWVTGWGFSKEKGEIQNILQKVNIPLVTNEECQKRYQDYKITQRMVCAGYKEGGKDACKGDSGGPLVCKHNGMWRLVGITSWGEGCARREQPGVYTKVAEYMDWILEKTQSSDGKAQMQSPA
Assay: cell-based or functional assay

Avg. IC50	Binder
3.4 nM	MCNYWSPWTECSA-NH2 (cysteine pairing not given here) [R2104]
3.1 nM	MCNYWSPWTECSR-NH2 (linker 2-11 via mXylyl) [R2003]

Molecular target: T4, Activated human plasma kallikrein …
Assay: cell-based or functional assay
Remark: another data set of the same source

Avg. IC50	Binder
0.501 nM	MCESICRVLRYSE-NH2 (linker 2-6 via mXylyl) [R2004]
3.1 nM	MCNYWSPWTECSR-NH2 (linker 2-11 via mXylyl) [R2003]

Molecular target: T4, Activated human plasma kallikrein …
Assay: cell-based or functional assay
Remark: another data set of the same source

Avg. IC50	Binder
> 4900 nM	Ac-CNYWSP[NMeW]TAC-NH2 (cysteine pairing not given here) [R2236]
> 4520 nM	Ac-CNY[NMeW]SPWTAC-NH2 (cysteine pairing not given here) [R2238]
305 nM	Ac-C[dN]YWSPWTAC-NH2 (cysteine pairing not given here) [R2233]
> 13900 nM	Ac-CNYW[NMeS]PWTAC-NH2 (cysteine pairing not given here) [R2237]
> 1950 nM	Ac-CN[dY]WSPWTAC-NH2 (cysteine pairing not given here) [R2232]
2.7 nM	Ac-CNYWSPWT[NMeA]C-NH2 (cysteine pairing not given here) [R2234]
101 nM	Ac-CNYWSPW[NMeT]AC-NH2 (cysteine pairing not given here) [R2235]

Molecular target: T4, Activated human plasma kallikrein …
Assay: cell-based or functional assay
Remark: another data set of the same source

Avg. IC50	Binder
0.501 nM	MCESICRVLRYSE-NH2 (linker 2-6 via mXylyl) [R2004]

Molecular target: thrombin (Enzyme Research Laboratories) (human, UniProt P00734 328-622)
Assay: cell-based or functional assay

Thrombin IC50	Binder
> 100000 nM	MCNYWSPWTECSA-NH2 (cysteine pairing not given here) [R2104]

Molecular target: plasmin (Enzyme Research Laboratories) (human, UniProt P00747 97-810, limits assumed)
Sequence (P00747 97-810 limits assumed): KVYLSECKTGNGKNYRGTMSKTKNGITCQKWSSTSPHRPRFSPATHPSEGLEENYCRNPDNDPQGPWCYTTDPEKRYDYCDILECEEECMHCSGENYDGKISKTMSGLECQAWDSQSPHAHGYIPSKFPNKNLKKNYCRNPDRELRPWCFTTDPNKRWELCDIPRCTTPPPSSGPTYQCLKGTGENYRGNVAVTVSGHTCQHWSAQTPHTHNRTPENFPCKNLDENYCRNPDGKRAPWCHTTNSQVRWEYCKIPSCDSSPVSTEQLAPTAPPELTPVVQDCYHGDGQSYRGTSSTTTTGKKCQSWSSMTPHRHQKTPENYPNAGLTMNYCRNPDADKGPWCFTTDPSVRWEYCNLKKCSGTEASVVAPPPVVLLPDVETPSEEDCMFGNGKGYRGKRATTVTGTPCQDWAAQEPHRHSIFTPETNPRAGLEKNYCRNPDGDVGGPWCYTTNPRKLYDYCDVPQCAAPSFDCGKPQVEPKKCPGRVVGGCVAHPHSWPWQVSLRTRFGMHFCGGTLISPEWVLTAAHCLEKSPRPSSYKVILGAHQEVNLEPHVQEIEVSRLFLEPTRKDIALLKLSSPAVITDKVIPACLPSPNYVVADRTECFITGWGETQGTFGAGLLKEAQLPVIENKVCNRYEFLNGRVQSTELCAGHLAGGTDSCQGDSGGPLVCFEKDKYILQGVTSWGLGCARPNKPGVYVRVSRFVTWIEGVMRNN
Assay: cell-based or functional assay

Plasmin IC50	Binder
5800 nM	MCNYWSPWTECSA-NH2 (cysteine pairing not given here) [R2104]

Molecular target: T1, tissue kallikrein KLK13 (R&D Systems)
Assay: cell-based or functional assay

KLK13 IC50	Binder
> 100000 nM	MCNYWSPWTECSA-NH2 (cysteine pairing not given here) [R2104]

Molecular target: T2, Factor XIIa (Enzyme Research …)
Assay: cell-based or functional assay

Factor XIIa IC50	Binder
> 100000 nM	MCNYWSPWTECSA-NH2 (cysteine pairing not given here) [R2104]

Molecular target: T4, Activated human plasma kallikrein …
Assay: cell-based or functional assay
Remark: another data set of the same source

Human Kallikrein IC50	Binder
3.4 nM	MCNYWSPWTECSA-NH2 (cysteine pairing not given here) [R2104]

Molecular target: mouse plasma kallikrein (R&D Systems) (mouse, UniProt P26262 20-638)
Sequence (P26262 20-638 limits assumed): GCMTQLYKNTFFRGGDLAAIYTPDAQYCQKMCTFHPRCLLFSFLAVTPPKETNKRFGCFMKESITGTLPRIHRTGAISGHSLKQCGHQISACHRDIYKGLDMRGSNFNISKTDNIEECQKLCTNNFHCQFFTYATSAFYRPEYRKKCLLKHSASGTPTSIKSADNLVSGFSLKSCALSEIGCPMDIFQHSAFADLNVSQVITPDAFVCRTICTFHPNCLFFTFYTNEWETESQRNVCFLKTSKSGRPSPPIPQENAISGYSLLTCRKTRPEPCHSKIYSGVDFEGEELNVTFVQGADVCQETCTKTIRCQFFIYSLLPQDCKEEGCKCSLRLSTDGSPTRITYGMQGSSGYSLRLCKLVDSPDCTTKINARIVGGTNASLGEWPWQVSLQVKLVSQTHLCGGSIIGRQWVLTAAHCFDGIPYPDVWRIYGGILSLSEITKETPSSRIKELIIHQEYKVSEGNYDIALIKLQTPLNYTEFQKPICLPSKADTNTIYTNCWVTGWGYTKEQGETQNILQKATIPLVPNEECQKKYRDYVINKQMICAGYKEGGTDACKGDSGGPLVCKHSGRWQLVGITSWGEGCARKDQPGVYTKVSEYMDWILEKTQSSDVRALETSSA
Assay: cell-based or functional assay

Mouse Kallikrein IC50	Binder
11.2 nM	MCNYWSPWTECSA-NH2 (cysteine pairing not given here) [R2104]

Molecular target: Factor Xa (Enzyme Research Laboratories) (human, UniProt P00742 41-488, limits assumed)
Sequence (P00742 41-488 limits assumed): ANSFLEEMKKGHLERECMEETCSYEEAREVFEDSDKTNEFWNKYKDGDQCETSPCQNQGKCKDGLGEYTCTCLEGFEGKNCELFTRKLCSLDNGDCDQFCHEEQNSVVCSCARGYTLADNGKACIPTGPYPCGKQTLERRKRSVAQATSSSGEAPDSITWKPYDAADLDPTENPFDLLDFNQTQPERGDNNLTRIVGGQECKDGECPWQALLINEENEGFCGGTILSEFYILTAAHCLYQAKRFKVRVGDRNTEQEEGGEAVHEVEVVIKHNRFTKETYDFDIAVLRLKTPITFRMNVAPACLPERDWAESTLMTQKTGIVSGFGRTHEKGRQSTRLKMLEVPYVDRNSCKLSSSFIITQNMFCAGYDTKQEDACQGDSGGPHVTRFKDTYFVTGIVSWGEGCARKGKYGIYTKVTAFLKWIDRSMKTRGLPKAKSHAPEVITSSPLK
Assay: cell-based or functional assay

Factor Xa IC50	Binder
> 100000 nM	MCNYWSPWTECSA-NH2 (cysteine pairing not given here) [R2104]

Molecular target: T3, Factor VIIa (Enzyme Research …)
Assay: cell-based or functional assay

Factor VIIa IC50	Binder
> 100000 nM	MCNYWSPWTECSA-NH2 (cysteine pairing not given here) [R2104]

Molecular target: Factor XIa (Enzyme Research Laboratories) (human, UniProt P03951 19-625)
Sequence (P03951 19-625 limits assumed): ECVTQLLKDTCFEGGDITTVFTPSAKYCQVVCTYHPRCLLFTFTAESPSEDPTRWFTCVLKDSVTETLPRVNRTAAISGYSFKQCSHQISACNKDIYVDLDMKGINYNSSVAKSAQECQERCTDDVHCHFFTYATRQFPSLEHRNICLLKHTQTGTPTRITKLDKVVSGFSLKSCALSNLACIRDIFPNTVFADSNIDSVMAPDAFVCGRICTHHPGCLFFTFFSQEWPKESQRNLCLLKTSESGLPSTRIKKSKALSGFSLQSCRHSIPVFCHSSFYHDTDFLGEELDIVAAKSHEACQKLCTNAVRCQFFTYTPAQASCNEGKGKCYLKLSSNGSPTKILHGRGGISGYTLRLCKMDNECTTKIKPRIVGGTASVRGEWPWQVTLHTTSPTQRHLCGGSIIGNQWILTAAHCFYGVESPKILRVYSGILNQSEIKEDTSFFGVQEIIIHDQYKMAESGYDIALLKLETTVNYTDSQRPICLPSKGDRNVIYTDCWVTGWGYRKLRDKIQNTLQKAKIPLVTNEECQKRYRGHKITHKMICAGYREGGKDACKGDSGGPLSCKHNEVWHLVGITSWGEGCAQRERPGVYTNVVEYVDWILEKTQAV
Assay: cell-based or functional assay

Factor XIa IC50	Binder
> 5000 nM	MCNYWSPWTECSA-NH2 (cysteine pairing not given here) [R2104]

Source: patent publication US20150166606A1 (RA PHARMACEUTICALS, published 2015)
